In assay [1] the target is HLA-A*3101 (Human). The note with it: remark: other sources report otherwise.
Assay [2] concerns the target HLA-A*1101 (human).
For assay [3], the target named is HLA-A*3301 (human).
The target in assay [4] is HLA-A*3101 (human). As to the kind of experiment: competition with 125I-labelled probe peptide for purified HLA-A*3101, gel filtration; ratio to standard peptide 941.12.
Assay [5] concerns the target HLA-A*6801 (human). Nature of the assay: competition with 125I-labelled probe peptide for purified HLA-A*6801, gel filtration; ratio to standard peptide 941.12.
The target in assay [6] is HLA-A*1101 (human). Nature of the assay: competitive inhibition of 125I-labelled probe peptide binding to purified HLA; relative to standard peptide.
The target in assay [7] is HLA-A*3101 (human). The description is as above.
Assay [8] concerns the target HLA-A*3301 (human). The description is as above.
Assay [9] addresses HLA-A*0301 (human). Nature of the assay: inhibition of binding of a 125I-labelled probe peptide to purified HLA-A*0301, gel filtration; relative to the standard peptide. Background: Size exclusion chromatography separates by hydrodynamic size, large species first.
Assay [10] addresses HLA-A*0301 (human). Nature of the assay: competitive inhibition of 125I-labelled probe peptide binding to purified HLA; relative to standard peptide.
The target in a further assay is HLA-B*0702 (Human). Nature of the assay: competition with 125I-labelled probe peptide for purified HLA, gel filtration.
The target in another assay is HLA-B*3501 (Human). The description is as above.
For the next assay, the target named is HLA-B*5101 (Human). Described as above.
Another assay addresses HLA-B*5401 (Human). The description is as above.
For assay [11], the target named is HLA-A*0301 (human). Nature of the assay: competition with 125I probe peptide on purified HLA-A*0301; relative to standard peptide 941.12.
In assay [12] the target is HLA-A*3101 (human). As to the kind of experiment: competition with 125I probe peptide on purified HLA-A*3101; relative to standard peptide 941.12.
The target in assay [13] is HLA-A*6801 (human). Nature of the assay: competition with 125I probe peptide on purified HLA-A*6801; relative to standard peptide 941.12.
Another assay concerns the target T1, HLA-DRB1*0101 (human).
T1 chain 1: not shown
T1 chain 2: not shown
As to the kind of experiment: inhibition of 125I-labelled probe peptide binding to purified HLA-DR; gel filtration. The note with it: remark: other sources report otherwise.

The target in another assay is T2, HLA-DRB1*0401 (human).
T2 chain 1: not shown
T2 chain 2: not shown
The assay is described as above. The note with it: remark: other sources report otherwise.

The next assay has as its target T3, HLA-DRB1*0701 (human).
T3 chain 1: not shown
T3 chain 2: not shown
Described as above. As to conditions: remark: other sources report otherwise.

Assay [14] addresses HLA-A*0301 (human). As to the kind of experiment: competition with 125I-labelled probe peptide for purified HLA-A*0301, gel filtration; relative binding against the standard peptide. The note with it: scale: ratio.
Assay [15] deals with HLA-A*0301 (human). As to the kind of experiment: competition with 125I-labelled probe peptide for purified HLA, gel filtration.
The target in assay [16] is HLA-A*1101 (human). The assay is described as above.
Where [17] appears, read: remark: other sources report otherwise.

What is called IC50 is the concentration at which inhibition is half-maximal.

Like-named read-outs stand apart in the source and are kept apart here.

Turning to FVLGGCRHK (modifications not checked) [Peptide 1.0219 (HBV X 1550, …)], the concentration for half-maximal inhibition (IC50) with HLA-A*3101 (Human) [1] came to 1500 nM.

As to PLEEELPR (modifications not checked) [HBV POL 20 peptide PLEEELPR], the binding affinity ratio (IC50 of standard peptide / IC50 of test peptide) with HLA-A*1101 (human) [2] was -0.0002; in the assay with HLA-A*3301 (human) [3], -0.0009; with HLA-A*3101 (human) [4], -0.0009; with HLA-A*6801 (human) [5] it was 0.0001.

In the case of PLSYQHFR (modifications not checked) [HBV POL 2 peptide PLSYQHFR], the binding affinity ratio (IC50 of standard peptide / IC50 of test peptide) with HLA-A*3301 (human) [3] was -0.0009; with HLA-A*3101 (human) [4], -0.0009; with HLA-A*6801 (human) [5] it was 0.0001.

As for KAGILYKR (modifications not checked) [HBV POL 153 peptide KAGILYKR], the binding affinity ratio (IC50 of standard peptide / IC50 of test peptide) was -0.0002 with HLA-A*1101 (human) [6], 0.0015 with HLA-A*3101 (human) [7] and -0.0009 with HLA-A*3301 (human) [8].

As to SSAGPCALR (modifications not checked) [Peptide 26.0153 (HBV X 64, …)], the IC50 in the assay with HLA-A*3101 (Human) [1] was 55 nM.

The molecule KVFVLGGCR (modifications not checked) [Peptide 1.0993 (HBV X 130, …)] had an IC50 in the assay with HLA-A*3101 (Human) [1] of 30 nM.

Turning to SSAGPCALRF (modifications not checked) [HBV X 64 peptide …], in the assay with HLA-A*0301 (human) [9], the binding affinity ratio (IC50 of standard peptide / IC50 of test peptide) is -0.0003.

HLNPNKTKR (modifications not checked) [HBV POL 569 peptide …]: the binding affinity ratio (IC50 of standard peptide / IC50 of test peptide) with HLA-A*0301 (human) [10] is 0.0025.

Take SAGPCALRF (modifications not checked) [HBV X 65 peptide …]: the binding affinity ratio (IC50 of standard peptide / IC50 of test peptide) in the assay with HLA-A*0301 (human) [9] was -0.0003.

In the case of PPAYRPPNAPI (modifications not checked) [HBV NUC 129 peptide …], the binding affinity ratio (IC50 of standard peptide / IC50 of test peptide) with HLA-B*0702 (Human) was determined as 0.0003; with HLA-B*3501 (Human) it was 0.0001; in the assay with HLA-B*5101 (Human), 0.0001; in the assay with HLA-B*5401 (Human), 0.0001.

For RTPSPRRR (modifications not checked) [HBV NUC 188 peptide RTPSPRRR], the binding affinity ratio (IC50 standard peptide / IC50 test peptide) with HLA-A*1101 (human) [2] was -0.0002; with HLA-A*3301 (human) [3] it was 0.0014; in the assay with HLA-A*0301 (human) [11], -0.0002; with HLA-A*3101 (human) [12], 0.0033; in the assay with HLA-A*6801 (human) [13], 0.0002. Besides, the binding affinity ratio (IC50 of standard peptide / IC50 of test peptide) with HLA-A*0301 (human) [9] is -0.0002.

As to HLSLRGLPVCAFSSA (modifications not checked) [… (HBV X 52, 15-mer)], the binding affinity ratio (IC50 of standard peptide / IC50 of test peptide) was found to be 1.3 with HLA-DRB1*0101 (human), 0.0028 in the assay with HLA-DRB1*0401 (human) and 0.013 in the assay with HLA-DRB1*0701 (human).

In the case of PLTVNEKRR (modifications not checked) [HBV POL 98 peptide …], the figures for the binding affinity ratio (IC50 of standard peptide / IC50 of test peptide) with HLA-A*1101 (human) [2], with HLA-A*3301 (human) [3] and with HLA-A*6801 (human) [5] were 0.0005, 0.0027 and 0.0002, respectively.

With GMDIDPYK (modifications not checked) [HBV NUC 29 peptide GMDIDPYK], the binding affinity ratio (IC50 of standard peptide / IC50 of test peptide) with HLA-A*0301 (human) [10] is 0.0006; with HLA-A*3101 (human) [7] it was -0.0009; with HLA-A*3301 (human) [8], -0.0009.

For TAELLAACFAR (modifications not checked) [HBV POL 716 peptide …], the binding affinity ratio (IC50 standard peptide / IC50 test peptide) was 0.0023 in the assay with HLA-A*1101 (human) [2] (setting [17]); 0.16 in the assay with HLA-A*3301 (human) [3] (setting [17]); 0.0006 with HLA-A*0301 (human) [11] (setting [17]); 0.0066 with HLA-A*3101 (human) [12] (setting [17]); 0.059 with HLA-A*6801 (human) [13] (setting [17]). Moreover, the binding affinity ratio (relative to standard peptide) in the assay with HLA-A*0301 (human) [14] (setting [17]) was determined as 0.0006.

Regarding SALNPADDPSR (modifications not checked) [HBV POL 771 peptide …], the binding affinity ratio (IC50 standard peptide / IC50 test peptide) with HLA-A*1101 (human) [2] is -0.0003; with HLA-A*3301 (human) [3], -0.0023; with HLA-A*0301 (human) [11] it was -0.0004; with HLA-A*3101 (human) [12], -0.0012; with HLA-A*6801 (human) [13], 0.0003. Further, the binding affinity ratio (IC50 of standard peptide / IC50 of test peptide) with HLA-A*0301 (human) [9] is -0.0004.

For the molecule SAGPCALR (modifications not checked) [HBV X 65 peptide SAGPCALR], the binding affinity ratio (IC50 standard peptide / IC50 test peptide) with HLA-A*1101 (human) [2] (setting [17]) was 0.002; with HLA-A*0301 (human) [11] (setting [17]), -0.0002; with HLA-A*3101 (human) [12] (setting [17]), 0.0029; with HLA-A*6801 (human) [13] (setting [17]), 0.036.

With PLTVNEKR (modifications not checked) [HBV POL 98 peptide PLTVNEKR], the binding affinity ratio (IC50 of standard peptide / IC50 of test peptide) with HLA-A*1101 (human) [2] is -0.0002; in the assay with HLA-A*3301 (human) [3], -0.0009; in the assay with HLA-A*3101 (human) [4] it was -0.0009; with HLA-A*6801 (human) [5] it was 0.0001.

Take SAICSVVR (modifications not checked) [HBV POL 520 peptide SAICSVVR]: the binding affinity ratio (IC50 standard peptide / IC50 test peptide) was 0.0071 with HLA-A*1101 (human) [2] (setting [17]); 0.0081 with HLA-A*3301 (human) [3] (setting [17]); -0.0002 with HLA-A*0301 (human) [11] (setting [17]); 0.028 with HLA-A*3101 (human) [12] (setting [17]); 0.069 in the assay with HLA-A*6801 (human) [13] (setting [17]). Moreover, the binding affinity ratio (IC50 of standard peptide / IC50 of test peptide) in the assay with HLA-A*0301 (human) [9] (setting [17]) was -0.0002.

Take SVVLSRKY (modifications not checked) [HBV POL 739 peptide SVVLSRKY]: the binding affinity ratio (relative to standard peptide) with HLA-A*0301 (human) [14] is -0.0002.

With PLSYQHFRK (modifications not checked) [HBV POL 2 peptide …], the figures for the binding affinity ratio (IC50 of standard peptide / IC50 of test peptide) with HLA-A*1101 (human) [2], with HLA-A*3101 (human) [4] and in the assay with HLA-A*6801 (human) [5] were 0.0031, 0.0006 and 0.0002, respectively.

With LPLDKGIKPYY (modifications not checked) [HBV POL 123 peptide …], the binding affinity ratio (IC50 of standard peptide / IC50 of test peptide) with HLA-B*3501 (Human) came out at 0.0009; with HLA-B*5101 (Human), 0.0001; with HLA-B*5401 (Human) it was 0.0001.

As to TDNSVVLSRK (modifications not checked) [HBV POL 736 peptide …], the binding affinity ratio (relative to standard peptide) in the assay with HLA-A*0301 (human) [14] came to 0.0006.

TTVVRRRGR (modifications not checked) [HBV NUC 175 peptide …]: the binding affinity ratio (relative to standard peptide) with HLA-A*0301 (human) [14] (setting [17]) came to 0.0008.

SPEHCSPHHTA (modifications not checked) [HBV NUC 44 peptide …]: the binding affinity ratio (IC50 of standard peptide / IC50 of test peptide) with HLA-B*3501 (Human) came out at 0.0001; in the assay with HLA-B*5101 (Human), 0.0001; with HLA-B*5401 (Human) it was 0.0011.

YLVSFGVWIR (modifications not checked) [… (HBV NUC 118)]: the binding affinity ratio (IC50 of standard peptide / IC50 of test peptide) is 0.0005 with HLA-A*0301 (human) [15] and 0.0002 with HLA-A*1101 (human) [16].

(Values after patent US20090311283A1.)
